{"source": "paper PMC9206387", "about": "“LILRB2-mediated TREM2 signaling inhibition suppresses microglia functions” (Molecular Neurodegeneration, 2022)", "target": "T1, oligomeric β-amyloid (1-42) (UniProt P05067 672-713)", "T1 construct": "the cut product β-amyloid (1-42) of the amyloid precursor protein; Oligomer; The methods of the direct BLI, reporter and BiFc assays name no label for oAβ; also called oAβ; Oligomer Aβ; source: bought: AnaSpec (lyophilized powder); HFIP-treated, dissolved in DMSO, oligomerised in DPBS at 37 °C overnight", "assay": "BLI; protein A sensor-captured Fc fusion proteins, oAβ at multiple concentrations, 1:1 binding model, KD calculated as kdis/kon", "conditions": "both partners purified"}
{"binder": "TREM2-Fc fusion protein (extracellular domain of TREM2 fused to human IgG1 Fc) (Fc fusion, UniProt Q9NZC2 19-174, looked up, triggering receptor expressed on myeloid cells 2 (TREM2), extracellular domain (ECD); source: Expi 293 cells, purified (protein A agarose)) HNTTVFQGVAGQSLQVSCPYDSMKHWGRRKAWCRQLGEKGPCQRVVSTHNLWLLSFLRRWNGSTAITDDTLGGTLTITLRNLQPHDAGLYQCQSLHGSEADTLRKVLVEVLADPLDHRDAGDLWFPGESESFEDAHVEHSISRSLLEGEIPFPPTS", "values": [{"measurement": "Kd", "value": 12.6, "unit": "nM"}, {"measurement": "koff", "value": 0.000123, "unit": "s⁻¹"}]}
{"binder": "LILRB2-Fc fusion protein (extracellular domain of LILRB2 fused to human IgG1 Fc) (Fc fusion, UniProt Q8N423 22-460, looked up, leukocyte immunoglobulin-like receptor subfamily B member 2 (LILRB2), extracellular domain (ECD) with four Ig-like domains; source: Expi 293 cells, purified (protein A agarose)) QTGTIPKPTLWAEPDSVITQGSPVTLSCQGSLEAQEYRLYREKKSASWITRIRPELVKNGQFHIPSITWEHTGRYGCQYYSRARWSELSDPLVLVMTGAYPKPTLSAQPSPVVTSGGRVTLQCESQVAFGGFILCKEGEDEHPQCLNSQPHARGSSRAIFSVGPVSPNRRWSHRCYGYDLNSPYVWSSPSDLLELLVPGVSKKPSLSVQPGPVMAPGESLTLQCVSDVGYDRFVLYKEGERDLRQLPGRQPQAGLSQANFTLGPVSRSYGGQYRCYGAHNLSSECSAPSDPLDILITGQIRGTPFISVQPGPTVASGENVTLLCQSWRQFHTFLLTKAGAADAPLRLRSIHEYPKYQAEFPMSPVTSAHAGTYRCYGSLNSDPYLLSHPSEPLELVVSGPSMGSSPPPTGPISTPGPEDQPLTPTGSDPQSGLGRHLGV", "values": [{"measurement": "Kd", "value": 69.3, "unit": "nM"}, {"measurement": "koff", "value": 0.000593, "unit": "s⁻¹"}]}
